Results as given in patent publication US20250034594A1, “RNA-GUIDED GENOME RECOMBINEERING AT KILOBASE SCALE” (THE BOARD OF TRUSTEES OF THE LELAND STANFORD JUNIOR …, priority 2021, published 2025).

Assays:
Assay type in all cases: cell-based
gene editing with Cas9 = experiment: Screen of 322 new SSAP proteins, gene editing activity with Cas9 (Table 5); design: Cas9 with SSAP activity: scale not given here
From the text: (§1) 322 new SSAP proteins were identified from sequence data, synthesized, and screened for activity with Cas9 and dCas9. Gene editing activities are shown below in Table 5, followed by amino acid sequences of the proteins.

gene editing with dCas9 = experiment: Screen of 322 new SSAP proteins, gene editing activity with dCas9 (Table 5); design: dCas9 with SSAP activity: scale not given here
From the text: as §1

[1] = tested on: gene editing with Cas9 and dCas9; experiment: Screen of 322 new SSAP proteins, activity across all experiments (Cas9 and dCas9, Table 5); design: scale not given here
From the text: as §1

Row | Molecule | Cas9 with SSAP activity (gene editing with Cas9) | Cas9 with SSAP activity (normalized) (gene editing with Cas9) | dCas9 with SSAP activity (gene editing with dCas9) | dCas9 with SSAP activity (normalized) (gene editing with dCas9) | Activity across all experiments [1]
1 | LambdaBet (MSTALATLAGKLAERVGMDSVDPQELITTLRQTAFKGDASDAQFIALLI) | −4.490 | −0.856 | −2.737 | −0.416 | −3.613
2 | SSAP_105: SEQ ID NO: 274; unclassified Lysinibacillus (protein, listed as Lysinibacillus sp.) ATTTDLKAQMQQAPATQQKPKTIDDYLKQMAPAMAQALPKHMDVDRLMRLAMTTIRTTPALKDADVSSLLGAVMQAAQLGLEPGLMGHCYLLPFKNNKKGITEVQFIIGYKGMIDLARRSGHIQSIYAHAVYQKDEFEYELGLDPKLKHKPCMDEDKGNFVGAYAVAHFKDGGYQFEFMSKAEIEKRKGRSKAANSTYSPWATDYEEMAKKTVVRHMWKYLPISVEMQQQVAYDEGTAPKREMKDITPETEFFVDAPEIEVEVVNE | −0.802 | −0.382 | −2.961 | −0.450 | −1.882
3 | SSAP_315: SEQ ID NO: 484; Pseudoalteromonas spongiae (protein, listed as Pseudoalteromonas spongiae) NKFQHLQTELSSQLLSTKERFNELNNKNNLKVNFEEEYNFFYHLVTSSFYNINGIATCTFSSLKEAFLNIAKYGLSINPKLNLCYIRTEQSCAQANVNIAVYDFGYKGLLKLITRTGKVKIVTADVFYENDNFEFRGTREPVKHSTKTLSAAARGAMAGGYCSSELVAGGVVTTIMTPEELREIESICQSTGNEAWNSVFIDELRRKTLIKRHWKTLMQVIEEQNLSVPIEETYQCDFANGGY | −1.578 | −0.629 | −3.063 | −2.608 | −2.321
4 | SSAP_163: SEQ ID NO: 332; Clostridium sp. Marseille-P3244 (protein, listed as Clostridium sp.) AARATNSVKEELAKKAETKAVGEKKLTRSMSIADLIKAMAPEIKKALPEVITPERFTRMALSALNTTPKLQECTQMSFLAALMNAAQLGLEPNTPLGQAYLIPFNNKGTMECQFQIGYKGLIDLGYRNPQMQIISAQAVYENDEFEYELGLNPKLEHRPALHDRGELRLFYGLFKLVNGGFGFEVMSKEAVDAYAKEYSKSFDSSFSPWKTNYEAMAKKTVIKQALKYAPIKADFRKALSTDETIKNEIAEDMSEIHGEDIFDAEYTEQTA | 1.362 | 1.914 | −2.847 | −0.374 | −0.742
5 | SSAP_51: SEQ ID NO: 220 (protein) AENEKQALLQEENKSENVVSTVKRTALATNPFSDTDQFNNIFKMAQLISQSDMIPATYKGKPMNCVIALEQANRMGVSPLMVMQNLYVVKGVPSWSGQGCMMIIQGCGKFRDVDYVYSGEKGTDSRSCKVVATRISDGKRIEGTEITMQMVKSEGWISNTKWKNMPEQMLGYRAATFFARMYCPNELNGFATEGEAEDMNHKPQRIEAINVLGDTAHE | −0.124 | −0.406 | −2.900 | −0.907 | −1.512
6 | SSAP_234: SEQ ID NO: 403; Cellulosilyticum lentocellum (protein, listed as Cellulosilyticum lentocellum) SDKKELVLKETHSRLNQLLATKMEAMPKDFNQTRFLQNCMTVLQDTKGIENCHPVSIARTLLKGAFLGLDFFQRECYAIPYGGELQFQTDYKGETKMAKKYSIRDIKDIYAKVVRKGDEFKEEIVAGQQVVDFKPLPFNDAEIIGAFAVVLYQDGGMEYETMSTKQIEGIRDNFSKMKNGLMWTKTPEEAYKKTVLRRLTKKIEKDFASIDQAKAYEESSDMQFKQDEQKQDAKDPFADAVDVEFTEETEGQVRLDGEADGAK | 0.596 | 1.140 | −2.950 | −0.446 | −1.177
